Measurements from the supplement of paper PMC7125110.
± gives the standard error. For some of these results: Variants at the floor of the assay were thinned out.

B1: glmS ribozyme (parent)
chain: AUAAAAGCGCCAGAACUACAGAAAUGUAGUUGACGAGGAGGAGGUUUAUCGAAUUUUCGGCGGAUGCCUCCAAA

What was measured:
Settings in all cases: with glucosamine-6-phosphate
glucosamine-6-phosphate [1] = variants of: B1; assay: kcat; higher = faster cleavage; RNA array
Outline: (§1)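 Glucosamine-6-phosphate (40 μM to 10 mM) in HEPES/KCl/Mg(OAc)2 buffer was flowed over sequenced MiSeq chips, and tiles were imaged over ~14 h. Barcoded ribozyme variants there had been transcribed in situ by E. coli RNA polymerase and were tracked through a hybridised Cy3 probe at 37 °C. One- or two-exponential decay fits to per-tile medians, normalised to baseline and to non-cleaving reference variants, gave kobs. kcat and KM came from weighted Michaelis–Menten fits across concentrations.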

glucosamine-6-phosphate [2] = variants of: B1; assay: self-cleavage kobs at 160 uM GlcN6P; higher = faster cleavage; RNA array
Outline: as §1

glucosamine-6-phosphate [3] = variants of: B1; assay: self-cleavage kobs at 640 uM GlcN6P; higher = faster cleavage; RNA array
Outline: as §1

glucosamine-6-phosphate [4] = variants of: B1; assay: self-cleavage kobs at 40 uM GlcN6P; higher = faster cleavage; RNA array
Outline: as §1

glucosamine-6-phosphate [5] = variants of: B1; assay: self-cleavage kobs at 2500 uM GlcN6P; higher = faster cleavage; RNA array
Outline: as §1

glucosamine-6-phosphate [6] = variants of: B1; assay: self-cleavage kobs at 10000 uM GlcN6P; higher = faster cleavage; RNA array
Outline: as §1

glucosamine-6-phosphate [7] = variants of: B1; assay: KM; higher = weaker cofactor use; RNA array
Outline: as §1

Variant	kcat (glucosamine-6-phosphate [1]) [s⁻¹]	self-cleavage kobs at 160 uM GlcN6P (glucosamine-6-phosphate [2]) [s⁻¹]	self-cleavage kobs at 640 uM GlcN6P (glucosamine-6-phosphate [3]) [s⁻¹]	self-cleavage kobs at 40 uM GlcN6P (glucosamine-6-phosphate [4]) [s⁻¹]	self-cleavage kobs at 2500 uM GlcN6P (glucosamine-6-phosphate [5]) [s⁻¹]	self-cleavage kobs at 10000 uM GlcN6P (glucosamine-6-phosphate [6]) [s⁻¹]	KM (glucosamine-6-phosphate [7]) [µM]
A6U G7A	< 1e-05	< 1e-05	< 1e-05				
U30C C61G	1.42e-05 ± 1.3e-06						
G41U A53C	0.000167 ± 4e-05		5.64e-05 ± 1.2e-05	< 1e-05	7.23e-05 ± 9.5e-06	0.000139 ± 1.2e-05	
U45G A53U	0.00477 ± 0.00059	0.000306 ± 5.6e-05	0.000953 ± 0.00022	9.6e-05 ± 1.4e-05	0.00274 ± 0.001	0.004 ± 0.0007	2170 ± 340
A15G A33C	0.000368 ± 3.1e-05		8.06e-05 ± 9.8e-06		0.000213 ± 3e-05	0.00029 ± 4.2e-05	2210 ± 330
A39C U69C	0.000195 ± 3.5e-05		6.94e-05 ± 1.8e-05		0.000211 ± 3.5e-05	0.000166 ± 1.9e-05	
U31A G59U	3.57e-05 ± 2.2e-06						2240 ± 490
G37U U46G	< 1e-05		< 1e-05				
A39G U54A	0.0133 ± 0.0029		0.00823 ± 0.0019	0.00173 ± 0.00037		0.018 ± 0.0076	282 ± 100
U30A U49A C68A C71G	4.8e-05 ± 2.1e-05		7.12e-05 ± 2.8e-05				
G29C U69C	0.000103 ± 2.8e-05	8.98e-05 ± 2.2e-05	0.000129 ± 2.2e-05		0.000164 ± 3e-05	6.68e-05 ± 1.6e-05	
U31A C58G G62C A64C C67A	1.85e-05 ± 3.6e-06						
G41U U45G	0.000293 ± 5.4e-05	3.13e-05 ± 1.4e-05	0.000129 ± 1.7e-05		0.000339 ± 9.1e-05	0.000243 ± 4.4e-05	909 ± 340
A53U U69G	6.8e-05 ± 1.2e-05	6.15e-05 ± 1.2e-05	4.69e-05 ± 1.2e-05		8.29e-05 ± 9.4e-06	4.84e-05 ± 1.2e-05	
U55A C61U	1.43e-05 ± 1.1e-06						1930 ± 520
A48U U69C	0.000248 ± 8.5e-06		7.15e-05 ± 1e-05		0.000147 ± 1.8e-05	0.000215 ± 2.7e-05	1640 ± 120
C50A C58G	< 1e-05					< 1e-05	
G40U U47A	0.00153 ± 0.00048	0.000114 ± 2.9e-05	0.000565 ± 0.0002	6.16e-05 ± 2.8e-05	0.00134 ± 0.00045	0.00115 ± 0.00037	1680 ± 730
U31G A48C	0.000112 ± 1.1e-05				5.79e-05 ± 1.5e-05	8.83e-05 ± 1.7e-05	2550 ± 670
